These results are taken from the supplement of paper PMC10567573.

± gives the standard deviation.

This data set is described as follows: protein stability index of a GFP-peptide fusion (GPS, HEK-293T) (PSI 1-6); higher = more stable. The settings on record: c terminus: a fixed tail appended.
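Also: 24-mer peptide tiles fused after GFP, lentivirally expressed, FACS-sorted into six equal bins by GFP/DsRed ratio, decoded by Illumina sequencing, PSI is the read-weighted mean bin number.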

With AADDFRLKYENELALRQGVEADIN [KRT15], the protein stability index amounted to 4.77 ± 0.29 (treatment: DMSO) and 4.64 ± 0.23 (treatment: MLN4924 1 uM, 8 h).

With AADIVNFLTVGSVLQMWHIVDKCT [ZBTB22], the protein stability index came out at 3.24 ± 0.88 (treatment: DMSO) and 3.65 ± 0.2 (treatment: MLN4924 1 uM, 8 h).

For the sequence AAESPDPPQSPQGASSLPTTMNYP [MAGEA3], the protein stability index by setting is: (treatment: DMSO) 5.23 ± 0.13; (treatment: MLN4924 1 uM, 8 h) 5.3 ± 0.1.

Regarding AAFCPQLDDSTVARELAITDSEHS [RETREG3], the protein stability index was found to be 5.26 ± 0.16 (treatment: DMSO) and 5.14 ± 0.16 (treatment: MLN4924 1 uM, 8 h).

Regarding AALNALQPPEFRNESSLASTLKTL [VMA21], the protein stability index runs as follows: (treatment: DMSO) 3.44 ± 0.2; (treatment: MLN4924 1 uM, 8 h) 3.51 ± 0.18.

Regarding AAQPMTKKRKVDGLSTEAEQPFIP [PRAME], the protein stability index by setting is: (treatment: DMSO) 4.43 ± 0.21; (treatment: MLN4924 1 uM, 8 h) 4.55 ± 0.27.

Turning to AASPGEAPAASEGAAAPATPTPVA [SNAP91], the protein stability index is, setting by setting: (treatment: DMSO) 5.38 ± 0.15; (treatment: MLN4924 1 uM, 8 h) 5.53 ± 0.25.

In the case of AAVAQKPRSHFTTPAPMSSAWKTV [MYBL2], the protein stability index is 3.06 ± 0.14 (treatment: DMSO) and 2.97 ± 0.22 (treatment: MLN4924 1 uM, 8 h).

On to ACIAYIRLTQYMDGSGMPKTMQSE [CAMK2D], for which the protein stability index runs as follows: (treatment: DMSO) 2.88 ± 0.5; (treatment: MLN4924 1 uM, 8 h) 2.55 ± 0.59.

Turning to ADAAEDEEVDVTSVDPIAAFCSSD [RBBP5], the protein stability index runs as follows: (treatment: DMSO) 5.57 ± 0.2; (treatment: MLN4924 1 uM, 8 h) 5.55 ± 0.2.

As for ADGVKPQTNSTKNSAAATSPKGTL [CAMK2B], the protein stability index runs as follows: (treatment: DMSO) 5.24 ± 0.14; (treatment: MLN4924 1 uM, 8 h) 5.4 ± 0.3.

As for ADIKQYIGPPSAAAIFKIYLSCLE [TRIP13], the protein stability index amounted to 2.19 ± 0.4 (treatment: DMSO) and 2.27 ± 0.22 (treatment: MLN4924 1 uM, 8 h).

For ADIMISFVRGDHRDNSPFDGPGGN [MMP1], the protein stability index is 2.96 ± 0.31 (treatment: DMSO) and 3.07 ± 0.36 (treatment: MLN4924 1 uM, 8 h).

ADSLASKVTRLKSLALDIDRDAED [BET1L]: the protein stability index came out at 5.3 ± 0.2 (treatment: DMSO) and 5.21 ± 0.21 (treatment: MLN4924 1 uM, 8 h).

In the case of AEASHYNSDLNNLLFCCQCVDVVF [RHOBTB3], the protein stability index reads like this: (treatment: DMSO) 2.52 ± 0.49; (treatment: MLN4924 1 uM, 8 h) 2.54 ± 0.54.

Turning to AEGARPLRENVPRVIMIVTDGRPQ [MATN2], the protein stability index came out at 2.83 ± 0.61 (treatment: DMSO) and 3.56 ± 0.35 (treatment: MLN4924 1 uM, 8 h).

As for AGNCPECGTPLRKSNFRVQLFEDP [MNAT1], the protein stability index runs as follows: (treatment: DMSO) 3.62 ± 0.33; (treatment: MLN4924 1 uM, 8 h) 4.08 ± 0.2.

For AGNNEHCGNIKAPSLQAWNDAPCD [CD207], the protein stability index runs as follows: (treatment: DMSO) 4.75 ± 0.33; (treatment: MLN4924 1 uM, 8 h) 4.71 ± 0.13.

For the sequence AGSEQKGQIIKDIDSGSPAEEAGL [PDZK1], the protein stability index is, setting by setting: (treatment: DMSO) 5.61 ± 0.11; (treatment: MLN4924 1 uM, 8 h) 5.26 ± 0.27.

As for AIILSSCLLGLGSLVLILSLSYTV [SLC2A12], the protein stability index is, setting by setting: (treatment: DMSO) 3.06 ± 0.4; (treatment: MLN4924 1 uM, 8 h) 3.26 ± 0.097.

In the case of AIKCSPSLHVDDRERMELLEEAKK [RIPK4], the protein stability index was 5.12 ± 0.65 (treatment: DMSO) and 5.28 ± 0.33 (treatment: MLN4924 1 uM, 8 h).

For AITTDCLQILAYGNQESKLIILAS [CTNNB1], the protein stability index was 2.85 ± 0.64 (treatment: DMSO) and 2.81 ± 0.84 (treatment: MLN4924 1 uM, 8 h).

As for AKEVTIAKADTTSTVTPVPGQEKG [EHMT1], the protein stability index is, setting by setting: (treatment: DMSO) 5.36 ± 0.28; (treatment: MLN4924 1 uM, 8 h) 5.52 ± 0.2.

Regarding AKQRAKEAQERELRKREKAEEKER [LRRC59], the protein stability index is, setting by setting: (treatment: DMSO) 5.45 ± 0.14; (treatment: MLN4924 1 uM, 8 h) 5.52 ± 0.36.

Consider ALEEADKMFLRTREPALDGGFQMH [EID1], for which the protein stability index runs as follows: (treatment: DMSO) 3.75 ± 0.066; (treatment: MLN4924 1 uM, 8 h) 3.64 ± 0.42.

In the case of ALKDSLRPKLSEEQQRIIAILLDA [VDR], the protein stability index is 2.44 ± 0.2 (treatment: DMSO) and 2.44 ± 0.41 (treatment: MLN4924 1 uM, 8 h).

For the sequence ALPENEFKKQIWLLFEYPESSSPA [KCNA4], the protein stability index was found to be 2.45 ± 0.16 (treatment: DMSO) and 2.44 ± 0.5 (treatment: MLN4924 1 uM, 8 h).

For ALQNKDTYEPFCKVPVITSSKEEQ [KCTD10], the protein stability index is, setting by setting: (treatment: DMSO) 4.4 ± 0.14; (treatment: MLN4924 1 uM, 8 h) 4.5 ± 0.16.

Consider ALQSRAAQRHRGSAKDGGPQPPDA [PLEKHN1], for which the protein stability index reads like this: (treatment: DMSO) 4.57 ± 0.49; (treatment: MLN4924 1 uM, 8 h) 4.96 ± 0.34.

As for ALRNFACLTTGDVIAINYNEKIYE [UFD1], the protein stability index was found to be 2.21 ± 0.49 (treatment: DMSO) and 2.29 ± 0.46 (treatment: MLN4924 1 uM, 8 h).

Consider ALVAAGGAPEDDEEDDGRGRGLLR [DENND6A], for which the protein stability index stood at 5.5 ± 0.15 (treatment: DMSO) and 5.33 ± 0.14 (treatment: MLN4924 1 uM, 8 h).

ALVVPKGNTAVSVLMLLVALLFTG [SCAMP3] returned a protein stability index (treatment: DMSO) of 2.98 ± 0.75 and a protein stability index (treatment: MLN4924 1 uM, 8 h) of 2.62 ± 0.45.

AMLKALLGSKHKVCMDLRANLKQV [TNNI2]: the protein stability index is 2.42 ± 0.18 (treatment: DMSO) and 2.33 ± 0.43 (treatment: MLN4924 1 uM, 8 h).

AMVEFVKLLNRCCHLFSTYVASHK [ACBD3]: the protein stability index worked out at 2.97 ± 0.19 (treatment: DMSO) and 2.85 ± 0.16 (treatment: MLN4924 1 uM, 8 h).

Regarding APKGKGRKPAAGAQSAGTQQVAAV [BRD3], the protein stability index by setting is: (treatment: DMSO) 4.98 ± 0.33; (treatment: MLN4924 1 uM, 8 h) 5.04 ± 0.24.

Take AQEEPWEKKESLGAAQEALSIQLQ [ZNF232]: the protein stability index is, setting by setting: (treatment: DMSO) 4.91 ± 0.4; (treatment: MLN4924 1 uM, 8 h) 5 ± 0.15.
